From the supplement of paper PMC11780869

Tested on: Bacillus subtilis
Experiment: cleaved RNA product abundance (RNA/gDNA barcode ratio) relative to median wild-type variant (ratio to wild type); higher = more accumulation of the downstream cleavage product
Details: cleavage site: cggR-gapA (positions -7 to +36 mutated)
How it was run: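 Sequencing of barcodes from gel-selected, reverse-transcribed cleaved RNA and from genomic DNA, with UMI collapsing, yielded a per-construct RNA:gDNA ratio. Scaled to the median construct with the unmutated site, this ratio is the cleaved product abundance. The barcoded reporters (truncated aprE or tetM mRNAs with mutagenized RNase Y cleavage-site windows) were integrated into the B. subtilis chromosome, and cultures grew in LB at 37°C from OD600 0.0003 to 0.3.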

[1] = experiment (reporter, strain, medium): exp 2b: truncated aprE reporter, strain BJT200
[2] = experiment (reporter, strain, medium): exp 4a: truncated aprE reporter, strain BJT201 with 2% xylose (RNase J1 expressed)
[3] = experiment (reporter, strain, medium): exp 6: tetM reporter, strain 168

Row | Sequence | cleaved RNA product abundance [1] | cleaved RNA product abundance [2] | cleaved RNA product abundance [3]
1 | ACAGACGAAGGAGCCGCAAAGAAGTTATTAAGGGATGAATAATCCCTCAATTTAAATATCTCTCACTTATTTAAA | 0.182 | 0.218 | 0.195
2 | ACAGACGAAGGAGCCGCAAAGAAGTTATTAAGGGATGAATAATCCCTCAATTTAAATGTCTCTCACTTATTTAAA |  | 0.048 | 
3 | ACAGACGAAGGAGCCGCAAAGAAGTTATTAAGGGATGAATAATCCCTCAATTTATATATCTCTCACTTATTTAAA |  | 0.2 | 
4 | ACAGACGAAGGAGCCGCAAAGAAGTTATTAAGGGATGAATAATCCCTCACTATAAATAACTCTCACTTATTTAAA | 0.175 | 0.285 | 
5 | ACAGACGAAGGAGCCGCAAAGAAGTTATTAAGGGATGAATAATCCCTCACTATAAATATCTCTCACTTATTTAAA | 0.215 | 0.277 | 0.208
6 | ACAGACGAAGGAGCCGCAAAGAAGTTATTAAGGGATGAATAATCCCTCACTATATATATCTCTCACTTATTTAAA |  | 0.319 | 
7 | ACAGACGAAGGAGCCGCAAAGAAGTTATTAAGGGATGAATAATCCCTCAGAATAAATATCTCTCACTTATTTAAA |  | 0.197 | 
8 | ACAGACGAAGGAGCCGCAAAGAAGTTATTAAGGGATGAATAATCCCTCAGGATAAATATCTCTCACTTATTTAAA | 0.131 |  | 
9 | ACAGACGAAGGAGCCGCAAAGAAGTTATTAAGGGATGAATAATCCCTCAGTATAAATATCTCTCACTTATTTAAA | 0.215 | 0.305 | 0.259
10 | ACAGACGAAGGAGCCGCAAAGAAGTTATTAAGGGATGAATAATCCCTCAGTATATATATCTCTCACTTATTTAAA |  | 0.242 | 
11 | ACAGACGAAGGAGCCGCAAAGAAGTTATTAAGGGATGAATAATCCCTCATAATAAATATCTCTCACTTATTTAAA |  | 0.554 | 
12 | ACAGACGAAGGAGCCGCAAAGAAGTTATTAAGGGATGAATAATCCCTCATATAAATATCTCTCACTTATTTAAAG | 0.394 | 0.256 | 
13 | ACAGACGAAGGAGCCGCAAAGAAGTTATTAAGGGATGAATAATCCCTCATCATAAATATCTCTCACTTATTTAAA | 0.192 | 0.115 | 
14 | ACAGACGAAGGAGCCGCAAAGAAGTTATTAAGGGATGAATAATCCCTCATTAAAAATATCTCTCACTTATTTAAA | 0.116 |  | 
15 | ACAGACGAAGGAGCCGCAAAGAAGTTATTAAGGGATGAATAATCCCTCATTATAAATAACTCTCACTTATTTAAA |  | 0.248 | 
16 | ACAGACGAAGGAGCCGCAAAGAAGTTATTAAGGGATGAATAATCCCTCATTATAAATATCTCTCACTTATTTAAA | 0.263 | 0.383 | 0.395
17 | ACAGACGAAGGAGCCGCAAAGAAGTTATTAAGGGATGAATAATCCCTCATTATAAATCTCTCTCACTTATTTAAA | 0.236 |  | 
18 | ACAGACGAAGGAGCCGCAAAGAAGTTATTAAGGGATGAATAATCCCTCATTTTAAATATCTCTCACTTATTTAAA |  | 0.191 | 
19 | ACAGACGAAGGAGCCGCAAAGAAGTTATTAAGGGATGAATAATCCCTCCAAATAAATATCTCTCACTTATTTAAA | 0.239 | 0.313 | 
20 | ACAGACGAAGGAGCCGCAAAGAAGTTATTAAGGGATGAATAATCCCTCCACATAAATATCTCTCACTTATTTAAA | 0.108 |  | 

Row | Sequence | cleaved RNA product abundance [1] | cleaved RNA product abundance [2] | cleaved RNA product abundance [3]
21 | ACAGACGAAGGAGCCGCAAAGAAGTTATTAAGGGATGAATAATCCCTCCATATAAATATCTCTCACTTATTTAAA | 0.243 | 0.341 | 0.34
22 | ACAGACGAAGGAGCCGCAAAGAAGTTATTAAGGGATGAATAATCCCTCCATATAAATTTCTCTCACTTATTTAAA |  | 0.23 | 
23 | ACAGACGAAGGAGCCGCAAAGAAGTTATTAAGGGATGAATAATCCCTCCCTATAAATATCTCTCACTTATTTAAA |  | 0.212 | 
24 | ACAGACGAAGGAGCCGCAAAGAAGTTATTAAGGGATGAATAATCCCTCGATATAAATATCTCTCACTTATTTAAA | 0.348 | 0.419 | 0.589
25 | ACAGACGAAGGAGCCGCAAAGAAGTTATTAAGGGATGAATAATCCCTCGTTATAAATATCTCTCACTTATTTAAA | 0.097 | 0.157 | 
26 | ACAGACGAAGGAGCCGCAAAGAAGTTATTAAGGGATGAATAATCCCTCTAAATAAATATCTCTCACTTATTTAAA | 0.36 | 0.429 | 
27 | ACAGACGAAGGAGCCGCAAAGAAGTTATTAAGGGATGAATAATCCCTCTACATAAATATCTCTCACTTATTTAAA |  | 0.441 | 
28 | ACAGACGAAGGAGCCGCAAAGAAGTTATTAAGGGATGAATAATCCCTCTAGATAAATATCTCTCACTTATTTAAA |  | 0.266 | 
29 | ACAGACGAAGGAGCCGCAAAGAAGTTATTAAGGGATGAATAATCCCTCTATATAAACATCTCTCACTTATTTAAA | 0.362 |  | 
30 | ACAGACGAAGGAGCCGCAAAGAAGTTATTAAGGGATGAATAATCCCTCTATATAAATACCTCTCACTTATTTAAA |  | 0.407 | 
31 | ACAGACGAAGGAGCCGCAAAGAAGTTATTAAGGGATGAATAATCCCTCTATATAAATATCTCTCACTTATTTAAA | 0.42 | 0.489 | 0.642
32 | ACAGACGAAGGAGCCGCAAAGAAGTTATTAAGGGATGAATAATCCCTCTATATAAATCTCTCTCACTTATTTAAA |  | 0.529 | 
33 | ACAGACGAAGGAGCCGCAAAGAAGTTATTAAGGGATGAATAATCCCTCTATATAATTATCTCTCACTTATTTAAA | 0.29 | 0.309 | 
34 | ACAGACGAAGGAGCCGCAAAGAAGTTATTAAGGGATGAATAATCCCTCTATATACATATCTCTCACTTATTTAAA | 0.248 | 0.226 | 
35 | ACAGACGAAGGAGCCGCAAAGAAGTTATTAAGGGATGAATAATCCCTCTATATATATATCTCTCACTTATTTAAA |  | 0.418 | 
36 | ACAGACGAAGGAGCCGCAAAGAAGTTATTAAGGGATGAATAATCCCTCTATCTAAATATCTCTCACTTATTTAAA |  | 0.101 | 
37 | ACAGACGAAGGAGCCGCAAAGAAGTTATTAAGGGATGAATAATCCCTCTATGTAAATATCTCTCACTTATTTAAA | 0.16 | 0.0964 | 
38 | ACAGACGAAGGAGCCGCAAAGAAGTTATTAAGGGATGAATAATCCCTCTCTATAAATATCTCTCACTTATTTAAA |  | 0.372 | 
39 | ACAGACGAAGGAGCCGCAAAGAAGTTATTAAGGGATGAATAATCCCTCTGTATAAATATCTCTCACTTATTTAAA | 0.163 | 0.224 | 
40 | ACAGACGAAGGAGCCGCAAAGAAGTTATTAAGGGATGAATAATCCCTGAAAATAAATATCTCTCACTTATTTAAA |  | 0.615 | 

Row | Sequence | cleaved RNA product abundance [1] | cleaved RNA product abundance [2] | cleaved RNA product abundance [3]
41 | ACAGACGAAGGAGCCGCAAAGAAGTTATTAAGGGATGAATAATCCCTGAACATAAATATCTCTCACTTATTTAAA |  | 0.242 | 
42 | ACAGACGAAGGAGCCGCAAAGAAGTTATTAAGGGATGAATAATCCCTGAAGATAAATATCTCTCACTTATTTAAA |  | 0.387 | 
43 | ACAGACGAAGGAGCCGCAAAGAAGTTATTAAGGGATGAATAATCCCTGAATATAAACATCTCTCACTTATTTAAA |  | 0.413 | 
44 | ACAGACGAAGGAGCCGCAAAGAAGTTATTAAGGGATGAATAATCCCTGAATATAAATAGCTCTCACTTATTTAAA |  | 0.256 | 
45 | ACAGACGAAGGAGCCGCAAAGAAGTTATTAAGGGATGAATAATCCCTGAATATAAATATCTCTCACTTATTTAAA | 0.566 | 0.684 | 0.675
46 | ACAGACGAAGGAGCCGCAAAGAAGTTATTAAGGGATGAATAATCCCTGAATATATATATCTCTCACTTATTTAAA | 0.477 | 0.598 | 
47 | ACAGACGAAGGAGCCGCAAAGAAGTTATTAAGGGATGAATAATCCCTTAAAATAAATATCTCTCACTTATTTAAA |  | 0.862 | 
48 | ACAGACGAAGGAGCCGCAAAGAAGTTATTAAGGGATGAATAATCCCTTAATAAAAATATCTCTCACTTATTTAAA |  |  | 0.227
49 | ACAGACGAAGGAGCCGCAAAGAAGTTATTAAGGGATGAATAATCCCTTAATATAAACATCTCTCACTTATTTAAA | 0.304 | 0.216 | 
50 | ACAGACGAAGGAGCCGCAAAGAAGTTATTAAGGGATGAATAATCCCTTAATATAAATAACTCTCACTTATTTAAA |  | 0.433 | 
51 | ACAGACGAAGGAGCCGCAAAGAAGTTATTAAGGGATGAATAATCCCTTAATATAAATATCTCTCACTTATTTAAA | 0.782 | 0.595 | 0.623
52 | ACAGACGAAGGAGCCGCAAAGAAGTTATTAAGGGATGAATAATCCCTTAATATAAATATTTCTCACTTATTTAAA |  | 0.494 | 
53 | ACAGACGAAGGAGCCGCAAAGAAGTTATTAAGGGATGAATAATCCCTTAATATACATATCTCTCACTTATTTAAA |  | 0.232 | 
54 | ACAGACGAAGGAGCCGCAAAGAAGTTATTAAGGGATGAATAATCCCTTAATATAGATATCTCTCACTTATTTAAA |  | 0.866 | 
55 | ACAGACGAAGGAGCCGCAAAGAAGTTATTAAGGGATGAATAATCCCTTAATATATATATCTCTCACTTATTTAAA |  | 0.895 | 
56 | ACAGACGAAGGAGCCGCAAAGAAGTTATTAAGGGATGAATAATCCCTTATTATAAATATCTCTCACTTATTTAAA |  | 0.813 | 
57 | ACAGACGAAGGAGCCGCAAAGAAGTTATTAAGGGATGAATAATCCCTTCAATATAAATATCTCTCACTTATTTAA |  | 0.904 | 
58 | ACAGACGAAGGAGCCGCAAAGAAGTTATTAAGGGATGAATAATCCCTTTATATAAATATCTCTCACTTATTTAAA | 1.14 | 0.977 | 
